The record followed here is paper PMC11327109, “Unwinding of a eukaryotic origin of replication visualized by cryo-EM” (Nature Structural & Molecular Biology, 2024).

For series [1], the system named is T1, sCMGE10 (single Cdc45-MCM-GINS-Polε with Mcm10).
T1 construct: gene MCM2; His- or TwinStrepII-tagged GINS; MCM loaded as Mcm2-7/Cdt1; wild type; ATP/ADP in MCM ATPase tier; with Cell division control protein 45; DNA replication complex GINS protein PSF1; DNA replication complex GINS protein PSF2; DNA replication complex GINS protein PSF3; DNA replication complex GINS protein SLD5; DNA polymerase epsilon catalytic subunit A; DNA polymerase epsilon subunit B; DNA polymerase epsilon subunit C; DNA polymerase epsilon subunit D; Minichromosome maintenance protein 10
Briefly: cryo-EM structure of complex ([…]-3.[…] Å). It is filed as binding, Saccharomyces cerevisiae. The following applies: assembled with 5 mM ATP, magnesium acetate, pH 7.6, bound to origin DNA; MCM ATPase sites.

Series [2] addresses T2, Mcm10 3A (OB-fold mutant) (Saccharomyces cerevisiae, UniProt P32354 1-571, F230A;Y245A;F247A).
T2 sequence: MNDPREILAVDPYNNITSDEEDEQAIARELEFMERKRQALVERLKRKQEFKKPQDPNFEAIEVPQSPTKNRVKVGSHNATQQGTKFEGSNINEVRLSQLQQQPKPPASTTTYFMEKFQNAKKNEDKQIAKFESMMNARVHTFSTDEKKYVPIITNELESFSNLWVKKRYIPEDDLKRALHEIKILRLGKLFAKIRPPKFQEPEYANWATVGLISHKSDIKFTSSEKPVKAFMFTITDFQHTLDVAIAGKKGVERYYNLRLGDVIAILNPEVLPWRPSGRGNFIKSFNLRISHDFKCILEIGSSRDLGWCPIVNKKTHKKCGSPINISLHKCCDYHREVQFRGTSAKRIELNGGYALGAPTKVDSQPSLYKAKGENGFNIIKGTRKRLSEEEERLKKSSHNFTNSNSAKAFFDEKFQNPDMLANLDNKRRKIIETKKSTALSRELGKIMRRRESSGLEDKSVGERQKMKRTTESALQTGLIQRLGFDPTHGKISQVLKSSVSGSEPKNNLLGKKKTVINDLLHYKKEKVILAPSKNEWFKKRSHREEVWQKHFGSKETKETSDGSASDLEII
The series is described as follows: MST; 10 mM Mg acetate; MST: 25 mM HEPES-KOH pH 7.6, 100 mM K-glutamate, 10 mM Mg acetate, 0.02% NP-40, 0.5 mM TCEP, 5 nM ssDNA, room temperature, 30 min; CMG assembly/EM: same buffer. The following applies: protein: recombinant; label: FAM (after the 3' end).

The next series concerns the target T3, Mcm10 deltaCTD (Saccharomyces cerevisiae, UniProt P32354 1-357, del358-571).
T3 sequence: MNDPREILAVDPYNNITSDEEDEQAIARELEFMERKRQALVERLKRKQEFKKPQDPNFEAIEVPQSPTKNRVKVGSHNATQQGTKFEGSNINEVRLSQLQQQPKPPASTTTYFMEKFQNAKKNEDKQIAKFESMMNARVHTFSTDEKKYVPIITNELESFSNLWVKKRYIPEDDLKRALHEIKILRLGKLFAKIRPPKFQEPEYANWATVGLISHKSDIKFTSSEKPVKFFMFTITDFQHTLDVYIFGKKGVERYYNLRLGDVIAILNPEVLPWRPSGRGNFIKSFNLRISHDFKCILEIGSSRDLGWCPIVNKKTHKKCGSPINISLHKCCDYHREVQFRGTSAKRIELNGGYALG
Described as above. The following applies: protein: recombinant; tags: N-terminal 6xHis, C-terminal 3xFlag; label: FAM (after the 3' end).

The next series concerns the target T4, Mcm10 wild-type (Saccharomyces cerevisiae, UniProt P32354 1-571).
T4 sequence: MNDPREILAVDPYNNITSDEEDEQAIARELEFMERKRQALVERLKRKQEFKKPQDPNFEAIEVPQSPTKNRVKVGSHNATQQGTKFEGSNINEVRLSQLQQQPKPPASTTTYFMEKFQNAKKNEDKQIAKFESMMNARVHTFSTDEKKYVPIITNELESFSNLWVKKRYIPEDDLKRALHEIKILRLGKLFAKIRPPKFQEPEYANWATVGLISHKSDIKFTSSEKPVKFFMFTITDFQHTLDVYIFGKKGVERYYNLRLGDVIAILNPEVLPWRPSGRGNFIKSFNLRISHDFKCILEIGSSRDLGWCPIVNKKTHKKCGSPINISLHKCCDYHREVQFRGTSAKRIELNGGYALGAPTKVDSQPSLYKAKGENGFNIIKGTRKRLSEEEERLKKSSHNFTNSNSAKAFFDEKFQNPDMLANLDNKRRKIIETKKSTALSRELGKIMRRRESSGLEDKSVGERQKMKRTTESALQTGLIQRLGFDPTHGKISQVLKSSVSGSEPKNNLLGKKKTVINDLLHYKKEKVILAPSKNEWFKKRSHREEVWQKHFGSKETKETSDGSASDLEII
The description is as above. The following applies: protein: recombinant; tags: N-terminal His, C-terminal Flag (pHis-Mcm10-Flag); label: FAM (after the 3' end).

As to `Nc1ncnc2c1ncn2[C@@H]1O[C@H](COP(=O)(O)OP(=O)(O)O)[C@@H](O)[C@H]1O` [ADP], the “cryo-EM structure of complex (3.7-3.9 Å)” value in series [1] was “Cryo-EM density for nucleotide ATP and ADP for consensus, ssDNA and nexus map”.

Take `Nc1ncnc2c1ncn2[C@@H]1O[C@H](COP(=O)(O)OP(=O)(O)OP(=O)(O)O)[C@@H](O)[C@H]1O` [ATP]: the “cryo-EM structure of complex (3.7-3.9 Å)” value in series [1] was “Cryo-EM density for nucleotide ATP and ADP for consensus, ssDNA and nexus map”. In the case of CCCCCCCCCCCC (ssDNA) [FAM-labelled dC12 ssDNA], the figures for the binding result (in series [2]; in the series with Mcm10 deltaCTD; with Mcm10 wild-type) were “no binding”, “binds” and “binds”, respectively.
